Ka data for 1 molecule are collected here from paper PMC7229763.

The target of the series is T1, BAF-WT (Homo sapiens, UniProt O75531 1-89).
T1 sequence: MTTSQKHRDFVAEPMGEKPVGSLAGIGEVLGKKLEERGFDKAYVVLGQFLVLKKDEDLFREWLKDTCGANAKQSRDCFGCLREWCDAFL
Kind of series: ITC.

B1: ITC dsDNA (30 bp, same sequence as EMSA probe) (dsDNA)
DNA 1: GAATCCTAACTGGGCGGAGTTATGCTGGTG
DNA 2: CACCAGCATAACTCCGCCCAGTTAGGATTC
B1: the Ka is 1.89 ± 0.19 uM (as printed for KA; dimension inconsistent, possibly 10^6 M-1).
